Test results from IntAct's records for PubMed 24606901.

B1: Succinate dehydrogenase [ubiquinone] iron-sulfur subunit, mitochondrial (Homo sapiens), P21912 (parent)
chain: MAAVVALSLRRRLPATTLGGACLQASRGAQTAAATAPRIKKFAIYRWDPDKAGDKPHMQTYEVDLNKCGPMVLDALIKIKNEVDSTLTFRRSCREGICGSCAMNINGGNTLACTRRIDTNLNKVSKIYPLPHMYVIKDLVPDLSNFYAQYKSIEPYLKKKDESQEGKQQYLQSIEEREKLDGLYECILCACCSTSCPSYWWNGDKYLGPAVLMQAYRWMIDSRDDFTEERLAKLQDPFSLYRCHTIMNCTRTCPKGLNPGKAIAEIKKMMATYKEKKASV
partner: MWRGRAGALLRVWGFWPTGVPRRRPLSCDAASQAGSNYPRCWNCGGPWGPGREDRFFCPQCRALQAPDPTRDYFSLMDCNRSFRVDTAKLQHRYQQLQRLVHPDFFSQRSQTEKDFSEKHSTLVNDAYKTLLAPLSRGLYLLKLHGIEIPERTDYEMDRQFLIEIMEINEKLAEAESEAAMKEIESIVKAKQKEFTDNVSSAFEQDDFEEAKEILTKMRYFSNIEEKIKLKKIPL

Variants of: B1
Conditions: with hsc20_human HSCB

Row | Variant | effect of a mutation on the interaction
1 | MAAVVALSLRRRLPATTLGGACLQASRGAQTAAATAPRIKKFAIYRWDPDKAGDKPHMQTYEVDLNKCGPMVLDALIKIKNEVDSTLTFRRSCREGICGSCAMNINGGNTLACTRRIDTNLNKVSKIYPLPHMYVIKDLVPDLSNFYAQYKSIEPYLKKKDESQEGKQQYLQSIEEREKLDGLYECILCACCSTSCPSYWWNGDKYLGPAVLMQAYRWMIDSRDDFTEERLAKLQDPFSLYRCHTIMNCTRTCPKGLNPGKAIAEIKKMMATYKEAAASV [K276A;K277A] | disrupting interaction
2 | MAAVVALSLRRRLPATTLGGACLQASRGAQTAAATAPRIKKFAIYRWDPDKAGDKPHMQTYEVDLNKCGPMVLDALIKIKNEVDSTLTFRRSCREGICGSCAMNINGGNTLACTRRIDTNLNKVSKIYPLPHMYVIKDLVPDLSNFYAQYKSIEPYLKKKDESQEGKQQYLQSIEEREKLDGLYECILCACCSTSCPSYWWNGDKYLGPAVLMQAYRWMIDSRDDFTEERLAKLQDPFSLYRCHTIMNCTRTCPKGLNPGKAIAEIAAMMATYKEKKASV [K267A;K268A] | disrupting interaction strength

Variants of: B1
Conditions: with hsc20_human HSCB
Remark: another data set of the same source

Row | Variant | effect of a mutation on the interaction
3 | MAAVVALSLRRRLPATTLGGACLQASRGAQTAAATAPRIKKFAAYRWDPDKAGDKPHMQTYEVDLNKCGPMVLDALIKIKNEVDSTLTFRRSCREGICGSCAMNINGGNTLACTRRIDTNLNKVSKIYPLPHMYVIKDLVPDLSNFYAQYKSIEPYLKKKDESQEGKQQYLQSIEEREKLDGLYECILCACCSTSCPSYWWNGDKYLGPAVLMQAYRWMIDSRDDFTEERLAKLQDPFSLYRCHTIMNCTRTCPKGLNPGKAIAEIKKMMATYKEKKASV [I44A] | disrupting interaction strength

Variants of: B1
Conditions: with hsc20_human HSCB
Remark: another data set of the same source

Row | Variant | effect of a mutation on the interaction
4 | MAAVVALSLRRRLPATTLGGACLQASRGAQTAAATAPRIKKFAIYRWDPDKAGDKPHMQTYEVDLNKCGPMVLDALIKIKNEVDSTLTFRRSCREGICGSCAMNINGGNTLACTRRIDTNLNKVSKIYPLPHMYVIKDLVPDLSNFYAQYKSIEPYLKKKDESQEGKQQYLQSIEEREKLDGLYECILCACCSTSCPSYWWNGDKYLGPAVLMQAYRWMIDSRDDFTEERLAKLQDPFSAYRCHTIMNCTRTCPKGLNPGKAIAEIKKMMATYKEKKASV [L240A] | disrupting interaction strength
